Assay: yeast display, Sf9 membrane polyspecificity reagent, FACS + sequencing; frameworks hold sequencing errors
In short: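 A synthetic nanobody library was expressed on Saccharomyces cerevisiae BJ5465 by galactose induction for 36–48 hours. The library was stained for 1 hour at 4 °C with 10% biotinylated, detergent-solubilized Sf9 membrane reagent and enriched with streptavidin microbeads before FACS. Low and high (top ~1%) gates were set on anti-HA fluorescence for expression and streptavidin fluorescence for reagent binding, and each polyreactivity label reflects the gate of origin.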

Sequence | polyreactivity (PSR sort gate)
QVQLVESGGGLDQAGGSLRLSCAASGGTFAVYAMGWYRQAPGKERELVAAIDSGGRTNYADSVKGRFTISRANAKNTVYLQMNSLKPEDTAVYYCAADGGGQYVRYDYWGQGTQVTVSS | high polyreactivity
QVQLVESGGGLDQAGGSLRLSCAASGGTFDTYAMGWYRQAPGKERELVAGIDWSGGSTYYADSVKGRFTISRDNAKNTVYLQMNSLKPEDTAVYYCAADYYYPSQMDYWGQGTQVTVSS | low polyreactivity
QVQLVESGGGLDQAGGSLRLSCAASGIIFSSYAMGWYRQAPGKERELVAAISYSGGSTYYADSVKGRFTISRDNAKNTVYLQMNSLKPEDTAVYYCAAQGYSPGGYDYWGQGTQVTVSS | low polyreactivity
QVQLVESGGGLDQAGGSLRLSCAASGIIFVENAMGWYRQAPGKERELVASGDSTYADSVKGRFTISRDNAKNTVYLKMNSRKPEDTAVYYCAAEVYVYHPFVHYDYWGQGTQVTVSS | low polyreactivity
QVQLVESGGGLDQAGGSLRLSCAASGITFKPYGMGWYRQAPGKERELVADITSGGITYYADSVKGRFTISRDNAKNTVYLQMNSLKPEDTAVYYCATGDLFVFYWGYVVRLYDYWGQGTQVTVSS | low polyreactivity
QVQLVESGGGLDQAGGSLRLSCAASGITFQSNAMGWYRQAPGKERELVAGISGSGARTYYADSVKGRFTISRDNAKNTVYLQMNSLKPEDTAVYYCAKKSSYRYGYWGQGTQVTVSS | high polyreactivity
QVQLVESGGGLDQAGGSLRLSCAASGITFRYYAMGWYRQAPGKERELVATISRGVRTNYADSVKGRFTISRDNAKNTVYLQMNSLKPEDTAVYYCNADYASARRYDYWGQGTQVTVSS | high polyreactivity
QVQLVESGGGLDQAGGSLRLSCAASGLTFGGNAMGWYRQAPGKERELVAAISWSDDTTDYADSVKGRFTISRDNAKNTVYLQMNSLKPEDTAVYYCAARLPFEHVDYWGQGTQVTVSS | low polyreactivity
QVQLVESGGGLDQAGGSLRLSCAASGLTFYSNAMGWYRQAPGKERELVARISTGGSTYADSVKGRFTISRDNAKNTVYLQMNSLKPEDTAVNYCAKLPPRGIDDEYWGQGTQVTVSS | low polyreactivity
QVQLVESGGGLDQAGGSLRLSCAASGLTLAVNAMGCYRQAPGKERELVAAISRRGGSTYYADSVKGRFTISRDNSKNPVYLQMNSLKPEDTAVYYCAAKYNYSEMDSWGQGTQVTVSS | high polyreactivity
QVQLVESGGGLDQAGGSLRLSCAASGNIFRIYAMGWYRQAPGKERELVATITKRGGSTYYADSVKGRFTISRDNAKNTVYLQMNSLKPEDTAVNYCNAVTKLWYDYDYWGQGTQGTVSS | high polyreactivity
QVQLVESGGGLDQAGGSLRLSCAASGNIFYTNAMGWYRQEPGKAREFVAAISGSGGRTYYADSVKGRFTMSRDNAKNTFYLQMNSLKPEDTEVYYCNAVRRDYYDRNYGYWGQGTQVSVSS | low polyreactivity
QVQLVESGGGLDQAGGSLRLSCAASGRIFDKYALGCYRHAPGKERELVAAISSSGGSTYYADSVKGRFTISRDNAKNTVYLQMNSLKTEDTAVYYCAKLVVVPFYYWGQGTQVTVSS | high polyreactivity
QVQLVESGGGLDQAGGSLRLSCAASGRIFGRYAMGWYRQAPGKERELVASISRGGSTNYADSVKGRFTISRDNAKNTVYLQMNSLKPEDTAVYYCAKSGGVGGEDRVGSWGQGTQVTVSS | low polyreactivity
QVQLVESGGGLDQAGGSLRLSCAASGRIFRYYAMGWYRQAPGKERELVAAISTSGDTTYYADSVKGRFTISRDNAKNTVYLQMNSLKPEDTAVYYCAADTYYYLVKYGSYDYWGQGTQVTVSS | high polyreactivity
QVQLVESGGGLDQAGGSLRLSCAASGRIFYQNAMGWYRQAPGKERELVAAITSSGVSTYYADSVKGRFTISRDYAKNTVYLQMNSLKPEDTAVYYCAAYRVGYGGYSYYYWGQGTQVTVSS | high polyreactivity

Sequence | polyreactivity (PSR sort gate)
QVQLVESGGGLDQAGGSLRLSCAASGRISYRYAMGSYRQAPGKEMELVASISSGVSTYYADSVKGRFTISRDNAKNTVYLQMHSLKPEDSAVYFCAAAYWFHNDYWGLGTQVTVSS | high polyreactivity
QVQLVESGGGLDQAGGSLRLSCAASGRIYYNYAMGWYRQSPVKERELVAAISGSGGSTYYADSVKWRLTISRDNAKNTVYLLMNSLKPEDTAVYYCSTSGPQYYSRNFDYWGQGTQVTVSS | low polyreactivity
QVQLVESGGGLDQAGGSLRLSCAASGRIYYPYARGLYRQAPGKESELVAAISSGVSTNYADSVKGRFTISRDNAKTTVYLQMNSLKPEDTAVYYCARTYFRFASSYYPAVSHGYWGQGTQVTVSS | high polyreactivity
QVQLVESGGGLDQAGGSLRLSCAASGRTFEQYAMGWYRQAPGKVRELVAAISGSGGSTFYADSVKGRFTISRDNAKNTVYLQMNSLKPEDTAVYYCADKYDGSYVGLYWYSMNYCGQGTQVTVSS | low polyreactivity
QVQLVESGGGLDQAGGSLRLSCAASGRTFGGYAMGWYRQAPGKERELVARISRSGGSTYYADSVKGRFTISRDNAKNTVYFQMNSLKPEDTAVYYCNTGLRTAYGWPQDDYWGQGTQVTVSS | low polyreactivity
QVQLVESGGGLDQAGGSLRLSCAASGRTFPYYAMGWYRQAPGKERELVAAISSSGGRTYYADSVKGRFTISRDNAKNTVYLQMNSLKPEDTAVYYCNVDAWYPYQGFLVGYYYWGQGTQVTVSS | low polyreactivity
QVQLVESGGGLDQAGGSLRLSCAASGRTFYNNAMGWYRPAPGKERELVAAITRGGSTYYADSVKGRFTISRDNAKNTVYLPMNSLKPEDTAVYYCAADGFTRWGRYDYWGQGTQVTVSS | high polyreactivity
QVQLVESGGGLDQAGGSLRLSCAASGRTFYYYAMAWYRQAPRTERELVAAIRRSGSSTYYADSVKGRFTISRDNAKNTVYLQMNSLKPEDTAFYYCAAAVYQRARYYWGQGTQVTVSS | high polyreactivity
QVQLVESGGGLDQAGGSLRLSCAASGRTLYKYAMGWYRQAPGKERELVAAIRWIGGSTYYADSVKGRFTISRDNAKNTVYLQMNSLKPEDTAVYYCAATYYYSRYGRYDYWGQGTQVTVSS | high polyreactivity
QVQLVESGGGLDQAGGSLRLSCAASGSIFDPYAMGWYRPAPGKEREFVAVISKGGTNTYYADSVKGRFTISRDNAKNTVYLQMNSLKPEDTAGYYCAARVDTYRAKYYYWRQGTQVTVSS | high polyreactivity
QVQLVESGGGLDQAGGSLRLSCAASGSIFEGNGMGWYRQAPGKERELVAAITFRSGSTYYADSVKGRFTISRDNAKNTVYLQMNSLKPEDTAVYYCAADEYYQVSAYDYWGQGTQVTVSS | low polyreactivity
QVQLVESGGGLDQAGGSLRLSCAASGSIFEPYDMGWYRQAPGKERELVASISRGGSTYYADSVKGRFTISRDNAKNTVYLQMNSLKPEDTAVYYCAADPYYYSSGYYYWGQGTQVTVSS | low polyreactivity
QVQLVESGGGLDQAGGSLRLSCAASGSIFGYAMGWYRQAPGKERELLAAITDSGGRTYYADSVKGRFTISRDNAKNTVYLQMNSLKPEDTAVYYCAKTWYPWSRYGYYRRYDSWGQGTQVNVSS | low polyreactivity
QVQLVESGGGLDQAGGSLRLSCAASGSIFPDYAMGWYIPAPGKERELVAAITWSGGNTYYADSVKGRFTISRDNAKNTVYLQMNSLKPEDTAVYYCAADISLHWYYYRRYNYWGQGTQVTVSS | low polyreactivity
QVQLVESGGGLDQAGGSLRLSCAASGSIFQDYAMGWYRQAPGKERELVAAITKSGVSTYYADSVKGRFTISRDNAKNTVYLQMNSLKPEDTAVYYCAAPRYVRYHRGYGFDYWGQGTQVTVSS | low polyreactivity
QVQLVESGGGLDQAGGSLRLSCAASGSIFYRNAMGWYRQAPGKEMELVAAISGRGGSTNYADSVKGRFTISRDNAKNTVYLPMNSLKPEDTAVYYCNRFGVSNILVRGGYWGLGTQVTVSS | high polyreactivity

From the nanobody polyreactivity screen of Harvey et al. (2022)
